According to publication PMC3834822:

Molecular target: full-length ParE-ParC55 fusion protein of S. pneumoniae topoisomerase IV (Streptococcus pneumoniae) (UniProt Q59961)
Assay: crystal structure; full-length ParE-ParC55 fusion protein with 34 bp V-site DNA (1:2.2 protein:DNA), MgCl2; sitting drop, 50 mM sodium citrate pH 5.0, 4-7% isopropanol; space group P4(2)2(1)2, 3.7 Å; no ATP

“full-length ParE-ParC55 fusion protein of S. pneumoniae topoisomerase IV (from UniProt Q59961 1-647; P72525 1-488) (enzyme)” was tested, and the stoichiometry N was 2.
